Laboratory results: the nanobody polyreactivity screen of Harvey et al. (2022)

test: yeast display, Sf9 membrane polyspecificity reagent, FACS + sequencing; frameworks hold sequencing errors
In short: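 Nanobodies came from a synthetic yeast display library in Saccharomyces cerevisiae BJ5465, induced with galactose for 36–48 hours and stained for 1 hour at 4 °C with 10% biotinylated, detergent-solubilized Sf9 membrane reagent. Cells were enriched on streptavidin microbeads and then FACS-sorted, with low and high (top ~1%) gates set on anti-HA fluorescence for expression and streptavidin fluorescence for reagent binding. Each polyreactivity label reflects the gate a clone came from. Genes were amplified by colony PCR, sequenced by MiSeq 2 × 250 and filtered by CDR length.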

| Sequence | polyreactivity (PSR sort gate) |
| --- | --- |
| QVQLVESCGCLVQAVGSLRLSCAASRFIFRLYAMVWYRQAPGKERELVAAISSGTSTYYADSVKVRFTISRDNAKNTVYLQMNSLKPEETEVYYCAAVPRVNWSRYVYFWYDYWGEGTQVTVSS | high polyreactivity |
| QVQLVESGGGLVQAGGSLRLSCAASGSIFRRNGMGWYRQAPGKERELVAAITYRGGNTNYADSVKGRFTISRDNAKNTVYFQMNRLKPEDTAVYYCAADTYGWWYAFEYWGQGTQVKVSS | low polyreactivity |
| QVQLVESGGGLVQAGGSLRLSCAASGGTCGTNAMGWYRQAPGKEREFVAAISRSGGSTNYADSVKGRFTISRDKAKNTVYLQMNSLKPEDTAVYYCATRVIVVPLGGGYYSWGQGTQVTVSS | high polyreactivity |
| QVQLVESGGGLVQAGGSLRLSCAASGFTFTGYAMGWYRQAPGKERELVAALTRGGGSTYYADSVKGRFTISRDNAKNTVYLQMNSLKPEDTAVYYCAAQRSRLIRISSPYYGHDYWGQGTQVTVSS | low polyreactivity |
| QVKLVESGGGLVQAGGTLRLSCAASGSISWVYAMGWYRQAPGKERELVADITDSGDSTYYADSVKGRFTISRDNAKNTVYLQMNSLKPEDTAVFYCAAVSGPFVQTSGNGEYDYCGQGTQVTVSS | low polyreactivity |
| QVQLVESGGCLFQEGGSLRLSCSASGRIFNTYAMVWYRQAPGKERELVARISSGGTTYYADSVKGRFTISRDNAKNTVYLQMNSLKPEDTAVYFCNVRAVTPTRSRPFRYDYWGQGTQVTVSS | high polyreactivity |
| QDHLVESGGCLVQAGGTLRLSCAASGFTIGNYAMAWYRQPPGKERELVAAISWSGGSTYYADSVKGRFTISRDNAKNTVYLQMNSLNPEVTAVYYCNPKRGSLWESDYWGQGSQVTVSS | high polyreactivity |
| QVQLLETGGGLVQAGGSLRLSCAASGSILRWYVRGWYRQAPGKERELVADIDSGGSTNYADSVKGRFTISRDNAKNTVFLQMNSLKPEDTAVYYCASDVPSRSRYGVYRRDGMDYWGQGTQVTVSS | low polyreactivity |
| QVQLVESGGGLVQAGGSLRLSCAASGRIFYVYTMGWYRQARGKERELVAAISWSGGSTHYADSVKGRFTISRDNAKNTVYLQMNSLKPEDTAVYYCNKGVLSRVAFEYWGQGTQVTVSS | low polyreactivity |
| QVQLVESGGGLVQAGGSLRLSCAASGRTFVGYPIGWYRQAPGKESELVATITNDAITNADSVKGRFTISRDNAKNTVYLQMNSLKPEDTAVYYCNTRYSYGTAYEQYRYKALYDYWGQGTQVTVSS | low polyreactivity |
| QVHLVESGGGLVQAGGSLRLSCAASGITFYLYAMGRYRQAPAKERELVAAINASGGSTYYADSVKGRFTISRDNAKNTVYLQMNSLKPEDSGVYYCAASTKKTRGFNYWGQGSQVTVSS | high polyreactivity |
| QVQLVESGGGLVQAGGSLRLSCAASGSLFYFYAMGWYRQAPGKERELVAAISSGGSTYYADSVKGRFTISRDNAKNTVYLQMNSLKPEDTEVYYCAADSLYYRYDYWGQGTQVTVSS | low polyreactivity |
| QVQLVESGGGFVQAGGSLRLSSAASGSTFYRYAMGWYRQAPGKEREFVAAISRSGGSTYYADSVKRRFTLSRDNAKNTVYLQMNSLKPEDTAVEYCNKYYWYPYGRAQDYGYWGQGTQVTVSS | high polyreactivity |
| QVQLVESWGGLVHAGGSLPLSCADSGITFFYYAMGWYRQAPGKEREFVAAISTSGGRTYYADSVKGRFTISRDNAKNTVYLQMNSLKPEDTAVYYCAARSRVPPAGPRYDYWGQGTQVTVSS | high polyreactivity |
| QLKLEESGGRLVQAGGSLRLSCASSGRTFTYYVMGCYRQAPGKERELVAAISDSGGSTYYADSVKGRFTISRDNAKNTVYLQMNSLKPEDTAVYYCATDSYWYRLREYNYWGQGTQVTVSS | high polyreactivity |
| QVQLVESGGGLVQAGGSLRLSCAASGRIFGVNAMGWYRQEPGKERELVAAISAGGGNTYYADSVKGRFTISRDNAKNTVYLQMNSLKPEDTAVYYCNVHRSLRMDYWGQGTQVTVSS | high polyreactivity |
| QVQLVESGGGLVQAGGSLRLSCAASGLIFARYVMGWYRHAPGKERELVADIDKGGGSTYYADSVKGRFTISRDNAKNTDSLQMNSLKPEDSSVYYCIADFDGWWWDDYRGQGTQVTVSS | high polyreactivity |
| QVQLVESGGGLVQAGGILRLSCAASGRIFYVNAMGWYRQAPGKERELVAAITWIDGSTYYADSVKGRFTISRDNAKNTVYLQMNSLKPEDTAVYYCAAGGYFYSFYYWGQGTQVTVSS | low polyreactivity |
| QVQLVDSGGAVVQAGGSLRLSCAASGYTFYRYAMGWYRQAPGKERELVAAMSRRGTRTYYADSVKGRFTISRDNAKNTVYLQMNSLKPEDTAVYFCNARRVRDVWWQLKRGDYWGQATQVTVSS | high polyreactivity |
| QVQRVESGGGLVQAGGSLGLSCAATGSTFTVYAMGWYRQATGTERELVASITFTGGSTYYADSVKGRFTISRDNAKNTVYLQMISLKPEVTEVYYCAAYGWRVHDRWFFERDYWGQGTQVTVSS | high polyreactivity |
| QVQLVESGGGLVQAGGRLSLSCAASGFIFDYYSMGWYRQAPGKERELVAAISWSGGSTYYADSVKGRFTISRDNAKNTVYLQMNSLKPEDTAVYYCNTYYQGYWGDFDYWGQGTQVTVSS | high polyreactivity |

| Sequence | polyreactivity (PSR sort gate) |
| --- | --- |
| QVQLVESGGGLVQAGGSLRLSCAASGSTFYRYAMGWYRQAPGKEREFVAAISGSGGSTRYADSVKGRFTISRDNAKNSVFLQMNSLKPEDTAVYYCAARSRYGYSTFDYWGHGTQVTVSS | high polyreactivity |
| QVQLVESGGGLVQAGGSLRLSCAASGSIFYGNTMGWYRQAPGKDRELVASITRPGDRTYYADSVKGRFTISRDNAKNTVYLQMNSLKPEDTAVYSCNAGLVLPPPGASIVYFDQMDYWGQGTQLTVSS | low polyreactivity |
| QYQLVESGGGLVQAGGSLSLSCAASATTFSAYAMGWYRQAPGKERELVAAISASGGSTYYADSVKGRFTISRDNAKNTVYLQMNSLKPEDNAVYFCNADRWKYELDYCGQGTQVTVSS | high polyreactivity |
| QVQLVESGGGLVQAGGSLRLSCAASGIIFYNKAMGWYRQAPGKERELVAAITWSDGSTYYADSVKGRFTISRDNAKTTVYLQMNSMKPEDTAVYYCARRSGDERRDGDYWGQGTQVTVSS | low polyreactivity |
| QVQLVESGGGLVQAGGSLRLSCAASGRYAMGWYRQAPGKVRELVAAISDSDGSTYYADSVKGRFTISRDNAKTNVYLQMNSLKPEDTAVNYCDARSIVRFDSWGQGTQVTVSS | low polyreactivity |
| QVQLVESGGGLVQAGGSLRLSCAASGSTFGEYAMGWSRQAPGKERELVATITSAGSTYYADSVKGRITFSRDNAKYTVYLQMNSLKPEDTAVYYCAVDPISQGHMDYWVQGTQVTVSS | low polyreactivity |
| QVQLVESGGGLVQAGGSLRLSCAASGYIFLVYAMGWYRQAPGKERELVAAIDWSDTHTYYADSVKGRFTISRDNAKNTVYLHMNSLKPEDSAVYYCNADDYQYKTWYHLDYWGQGTQVTVSS | low polyreactivity |
| QVQIVESGGGSVQAGGSLRLSCADSGFTFRKNAMGWYRQAPGKERELVAAISVSGGRTYYADSVKVRFTISRDNAKNTFYLQMNSLKPEETAVYYCAARRYVLVHKYDYWGQGTQVTVSS | high polyreactivity |
| QVHLVESGGGLFQAVLSLRLSCAASGFIFQRYPMGWYRQAPGKESELVAAISSGGGTNYADSVKGRFTISRDNAKKTVYLQLNSLIPEDTAVYYCARPYYVYSQSSDYWGQGTQVTVSS | low polyreactivity |
| QVQLVESGGGLVQAGGSLRLSCAASGSNSVYAMGWYRQAPGKERELVAAITISGGITYYADSVKGRFTIARDNAKNTVYLQMNSLKPEDTAVFYCNADQGSALRWSYDYWGQGTQVTVSS | low polyreactivity |
| QVQLQDSGGRLVQAGGSLRLSCAASGYIFGSCSMGWFRQSPGKVRELVATINNGSSTYYADSVKGRITISRDNAKNSVYLQMNSLKPEDTAVYYCAVSLYRLTFFYYWGQGNQVTVSS | high polyreactivity |
| QVQHVESGGGLVQAGGSLLLSCAASGSIFASYAMGWYRQAPGKEREFVASISRSGGRTYYADSVKGRFTISRDNAKNTVYLQMKSLKPEDTAVYYCAAQPSSYVYYRQPFHYWGQGTQVTVSS | high polyreactivity |
| QVQLVESGRRLVQAGGSLRLSCAASGSTFYGYGMGWYRPAPRQERELVAAITGSGDTTYYADSVKGRFTISRDNAKNTVYLQMNSLKPEDTAVYYCNARWHAEYDYWGQGTQVTVSS | low polyreactivity |
| QVHLVESGGGLVQAGGSLRLICAASGYIFQRNAMGWYRQAPGKEREFVAAITRSGGTTYYADSVKGRFTISRDNAKNTVYLQMNSLKPEDTAGYYCNAPRSDRSVYHYHYWGQGTQVTVSS | low polyreactivity |
| QVQLVESGGGLVQAGGILRLSCAASGSTFWPYAMGWYRQAPGKERELVATNRGGGTSTYYADSVKGRFTISRDNAKNTVYLQMNSLKPEDTAVYYCAARGFFTGSYPGYYYWGLGTQVTVSS | high polyreactivity |
| QVQLVESGGGLVQAGGSLRLSCAASGRIFRRYAMGWYRQAPGKERELVAAISSGGSTNYADSVKGRFTLSRDNAKNTVYLQMNSLKPEDTAVYYCAARRTATTSRAYYYWGQGNQVTVSS | high polyreactivity |
| QVQLVESGGGLVQAGGSLRLSCAASGRTFYFNAMGWYRQAPGKERELVAGISGDGSTNYADSVKGRFTISRDNAKNTFYLQMNSLKPEDTAVYYCAKTMGSQSYDFDYWGQGTQVTVSS | low polyreactivity |
| QVQLVESGGGLVQAGGSLRLSCAASGFTFDFYDMGWYRQAPGKERELVAAISWDGGTTYYADSVKGRFTISRDNAKNTVYLQMNSLKPEDTAVYYCAADDWVYVPTRAWYLYEYWGQGTQVTVSS | low polyreactivity |
| QVQLVESGGGLVQAGGSLRLSCAASGSTLYPNAMGWYRHAPGKERELVAAISSGSSTYADSVKGRFTISRDNAKNTVYLQMNSLKPEDTAVYYCNADSRIHYDYWGQGTQLTVSS | low polyreactivity |
| QVQLVESGGGLVQAGGSLRLSCAASGRTFSVNAMGWYRQAPGKEREFVAAISKSGGSTYYADSVKGRFTISRDNAKNTVYLQMNSLKPEDTAVYYCAADSNSVYPFDYWGQGTQVTVSS | high polyreactivity |
